Laboratory results as given in the supplement of paper PMC9170038.

Tested on: MS2 coat protein
Test: apparent KD of MS2 coat protein; designed switch direction (-1 OFF switch, 1 ON switch): -1; higher = weaker reporter binding
Method in brief: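 Designed RNA switches sharing common flanks were transcribed on Illumina chips by stalled E. coli RNA polymerase. They were titrated with SNAP-549-labelled MS2 coat protein, from 0.7 or 1.5 nM doubling to 3 µM, in Tris-HCl pH 7.5 buffer with KCl, MgCl2, BSA, DTT, tRNA and Tween-20. Titrations ran without input, with 200 uM small-molecule ligand, or with an oligonucleotide input. The apparent KD of each design is the median over its clusters, after curve-fitting of normalised cluster fluorescence.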

[1] = input ligand: microRNA oligo, concentration not stated
[2] = Eterna round: R95, input ligand: FMN 200 uM
[3] = Eterna round: R95, input ligand: microRNA oligo, concentration not stated
[4] = Eterna round: R95, input ligand: none

| Sequence | apparent KD of MS2 coat protein (input ligand: FMN 200 uM) [nM] | apparent KD of MS2 coat protein (input ligand: none) [nM] | apparent KD of MS2 coat protein [1] [nM] | apparent KD of MS2 coat protein [2] [nM] | apparent KD of MS2 coat protein [3] [nM] | apparent KD of MS2 coat protein [4] [nM] |
| --- | --- | --- | --- | --- | --- | --- |
| AUAAGGUGAGGAUAUCCACGACCCUACAUGAGGAUCACCCAUGUAUACAGUACGUGUAGAGGAGAAGGUACAUGUC [Eternabot (L2) Solution 78] (Eterna round: R97, puzzle: Exclusion 5) | 28.3 | 29.3 |  |  |  |  |
| AUAAGUGAUAAGGAUAUCACUAGCUUCGGCUAGUGAGAAGGUAUCACAUGAGGAUCACCCAUGUGUUCCAAUAA [Ex6/7-A1] (Eterna round: R97, puzzle: Exclusion 6) | 603 | 213 |  |  |  |  |
| AUAAUAAAACAUGAGGAUCACCCAUGUGGGUCGUUCUACUGGCAGGAUAUCGCCAGACAAUAAAACGAGAAGGGCCAGUUAAUA [Leanerrean] (Eterna round: R96, puzzle: Exclusion NG 3) | 168 | 86 | 92.6 |  |  |  |
| AUAAUAAAGGAGGAUAUCGUAUCGGAAACGAUACGAGAAGGUCUAACAUGAGGAUCACCCAUGUUCCUCAAUAA [Mat - Exclusion 6 - Eli Mod - D48] (puzzle: Exclusion 6) |  |  |  | 54.5 | 35.9 | 36.1 |
| AUAAUACAUGUAGGAUAUGCGUGGCGAAGCUAUGCAGAAGGACAUGAGGAUCACCCAUGUGCUAGCGUCUGCGUACAGAUGCUA [JL eng1 1.35 mod 3] (Eterna round: R96, puzzle: Exclusion NG 1) | 310 | 44.1 | 21 |  |  |  |
| AUAAUGUGAGGAUAUCAGUCGACUAGCUUCGGCUAGUCGACUGAGAAGGUACAUGAGGAUCACCCAUGUGGUUC [E4/11-B1] (Eterna round: R97, puzzle: Exclusion 4) | 885 | 456 |  |  |  |  |
| AUAAUGUGAGGAUAUCAGUCGUACAGCUGCGGCUGUACGACUGAGAAGGCACAUGAGGAUCACCCAUGUGGUCA [E4/5-A3] (Eterna round: R97, puzzle: Exclusion 4) | 70.7 | 672 |  |  |  |  |
| AUAAUUAGUUCAGGAUAUCAGCACGAUUAGUGCUGAGAAGGGAACAUGAGGAUCACCCAUGUGAUCAAUAUUAUAAUUUUAAUU [ENG1/12-B1] (Eterna round: R96, puzzle: Exclusion NG 1) | 281 | 1150 | 540 |  |  |  |
| AUAAUUUAAGUCAGGAUAUACCUAUGGAAACAUAGGUAGAAGGGACAUGAGGAUCACCCAUGUUUAUAUACAUA [Fiskers BMX 4 - 4] (puzzle: Brourd's mod of Exclusion 4) |  |  |  | 29.8 | 16.8 | 15.1 |
| AUACCACGAGGAUAUCGUCUAUAAUACAUGAGGAUCACCCAUGUUAUAUCUGUAAUGUUUCGAGAAGGCGUGUGUU [JR_E5_Sub084] (Eterna round: R96, puzzle: Exclusion 5) | 17 | 21.3 | 15.4 |  |  |  |
| AUACCACGAGGAUAUCGUCUAUAAUACAUGAGGAUCACCCAUGUUAUAUCUGUAAUGUUUCGAGAAGGCGUGUGUU [JR_E5_Sub084] (puzzle: Exclusion 5) |  |  |  |  | 17.9 |  |
| AUAUAGAUAGUCAGGAUAUGCUAGUGAUAACAGUAGUAGAAGGGACAUGAGGAUCACCCAUGUAGAUAGUGCAC [Brourd's EX4 #4] (Eterna round: R97, puzzle: Brourd's mod of Exclusion 4) | 32.6 | 22.5 |  |  |  |  |
| AUAUAGCGAGGAUAUACAUGAGGAUCACCCAUGUAGGUUCCGGGUUUUCCAGUAAAAUGUAGAAGGCGCAUGGA [EX3 B.5] (Eterna round: R97, puzzle: Exclusion 3) | 99.4 | 44.6 |  |  |  |  |
| AUAUUAAGUGUGAGGAUAUGCUGGUCCUUGGAUCAGCAGAAGGCACAUGAGGAUCACCCAUGUAAUAUAUUUAU [Mat - Exclusion 4 - JL Mod - D47] (puzzle: Brourd's mod of Exclusion 4) |  |  |  |  | 78.6 |  |
| AUAUUGUGAGGAUAUCAGGUGUGCUAGCGUACUGGUACAUCUGAGAAGGCACAUGAGGAUCACCCAUGUUUCUU [Mat - Exclusion 4 - Mod of JL - D42] (puzzle: Exclusion 4) |  |  |  |  | 15.2 |  |
| AUCAGCUCGUGAGGAUAUACAUGAGGAUCACCCAUGUGGUCAUUAGCAGCUUCGGCUGCAUUAAUGUAGAAGGCACGAGCUGAU [ENG2/8-A2] (Eterna round: R96, puzzle: Exclusion NG 2) | 360 | 829 | 732 |  |  |  |
| AUCAUGUAAGGAUAUCUUACAUGGAUCGAAAGAUCAAGUUAAGAGAAGGUACAUGAGGAUCACCCAUGUAUAAC [Ex4-3: 34] (puzzle: Exclusion 4) |  |  |  | 21 | 22.3 | 20.8 |
